From patent US20220025021A1 (BETH ISRAEL DEACONESS MEDICAL CENTER, published 2022)
Where a chain is given by its changes, count along the chain named.

B1: MS-86 (antibody)
VH: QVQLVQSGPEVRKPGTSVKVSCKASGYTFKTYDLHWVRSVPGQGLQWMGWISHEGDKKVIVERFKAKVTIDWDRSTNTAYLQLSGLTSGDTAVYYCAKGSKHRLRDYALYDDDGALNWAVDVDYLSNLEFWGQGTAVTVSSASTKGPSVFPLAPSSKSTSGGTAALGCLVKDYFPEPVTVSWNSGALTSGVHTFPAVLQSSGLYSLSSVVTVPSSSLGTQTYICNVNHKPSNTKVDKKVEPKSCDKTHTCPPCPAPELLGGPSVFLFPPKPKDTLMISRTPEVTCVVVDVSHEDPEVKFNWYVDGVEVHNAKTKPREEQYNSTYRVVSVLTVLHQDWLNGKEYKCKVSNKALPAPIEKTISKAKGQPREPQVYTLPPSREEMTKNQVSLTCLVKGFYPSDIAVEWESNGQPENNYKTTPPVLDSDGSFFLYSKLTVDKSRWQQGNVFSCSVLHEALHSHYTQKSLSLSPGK
VL: DFVLTQSPHSLSVTPGESASISCKSSHSLIHGDRNNYLAWYVQKPGRSPQLLIYLASSRASGVPDRFSGSGSDKDFTLKISRVETEDVGTYYCMQGRESPWTFGQGTKVDIKRTVAAPSVFIFPPSDEQLKSGTASVVCLLNNFYPREAKVQWKVDNALQSGNSQESVTEQDSKDSTYSLSSTLTLSKADYEKHKVYACEVTHQGLSSPVTKSFNRGEC
B2: MS-90 (antibody)
VH: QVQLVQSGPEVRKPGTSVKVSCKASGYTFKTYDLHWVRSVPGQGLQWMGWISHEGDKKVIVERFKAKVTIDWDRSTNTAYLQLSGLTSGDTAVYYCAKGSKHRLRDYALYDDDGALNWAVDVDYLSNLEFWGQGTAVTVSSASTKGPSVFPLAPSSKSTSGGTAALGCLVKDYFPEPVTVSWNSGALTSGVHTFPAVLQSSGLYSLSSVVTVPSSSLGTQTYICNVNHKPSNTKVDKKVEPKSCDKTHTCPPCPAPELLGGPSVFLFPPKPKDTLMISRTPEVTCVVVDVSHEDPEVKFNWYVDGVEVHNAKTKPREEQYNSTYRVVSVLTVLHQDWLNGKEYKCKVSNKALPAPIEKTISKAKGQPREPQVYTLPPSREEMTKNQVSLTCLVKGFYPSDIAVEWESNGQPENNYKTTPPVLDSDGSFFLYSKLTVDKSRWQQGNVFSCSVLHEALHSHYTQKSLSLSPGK
VL: B1 VL with H9L
B3: MS-84 (antibody, V domains shown)
VH: QVQLVQSGPEVRKPGTSVKVSCKAPGNTLKTYDLHWVRSVPGQGLQWMGWISHEGDKKVIVERFKAKVTIDWDRSTNTAYLQLSGLRSGDTAVYYCAKGSKHRLRDYALYDDDGALNWAVDVDYLSNLEFWGQGTAVTVSS
VL: DFVLTQSPLSLPVTPGEPASISCKSSHSLIHGDRNNYLAWYVQKPGQSPQLLIYLASSRASGVPDRFSGSGSDKDFTLKISRVEAEDVGVYYCMQGRESPWTFGQGTKVDIKR
B4: MS-85 (antibody, V domains shown)
VH: B3 VH with R87T
VL: B3 VL with F2I, L9H, P12S, P18S, Q47R, D73G, K74T, A85T, V90T
B5: MS-88 (antibody, V domains shown)
VH: B3 VH with P25S, N27Y, L29F, D71T, W72R, R87T
VL: B3 VL with L9H, P12S, P18S, Q47R, A85T, V90T
B6: MS-92 (antibody, V domains shown)
VH: B3 VH with Q46E, W72R
VL: B3 VL with F2I, L9H, P12S, P18S, Q47R, A85T, V90T
B7: MS-87 (antibody, V domains shown)
VH: B3 VH with D71T, W72R, R87T
VL: B3 VL with L9H, P12S, P18S, Q47R, A85T, V90T
B8: MS-91 (antibody, V domains shown)
VH: B3 VH with P25S, N27Y, R87T
VL: B3 VL with P12S, P18S, Q47R, K74T, A85T, V90T
B9: MS-89 (antibody, V domains shown)
VH: B3 VH with N27Y, D71T, R87T
VL: B3 VL with P12S, P18S, Q47R, A85T, V90T

Tests used:
Assay in all cases: cell-based or functional assay
[1] = molecular target: HIV-1 pseudovirus X1193_c1 (HIV-1)
[2] = molecular target: HIV-1 pseudovirus SC05.8C11.2344 (HIV-1)
HIV-1 pseudovirus 263-8 = HIV-1 pseudovirus 263-8 (HIV-1)
[3] = molecular target: HIV-1 pseudovirus 6952.v1.c20 (HIV-1)
[4] = molecular target: HIV-1 pseudovirus Ce1176_A3 (HIV-1)
[5] = molecular target: HIV-1 pseudovirus AC10.0.29 (HIV-1)

Binder	IC50 (neutralization in TZM.bl cells) [1] [µg/mL]	IC80 (neutralization in TZM.bl cells) [1] [µg/mL]	IC50 (neutralization in TZM.bl cells) [2] [µg/mL]	IC80 (neutralization in TZM.bl cells) [2] [µg/mL]	IC50 (neutralization in TZM.bl cells) (HIV-1 pseudovirus 263-8) [µg/mL]	IC80 (neutralization in TZM.bl cells) (HIV-1 pseudovirus 263-8) [µg/mL]	IC50 (neutralization in TZM.bl cells) [3] [µg/mL]	IC80 (neutralization in TZM.bl cells) [3] [µg/mL]	IC50 (neutralization in TZM.bl cells) [4] [µg/mL]	IC80 (neutralization in TZM.bl cells) [4] [µg/mL]	IC50 (neutralization in TZM.bl cells) [5] [µg/mL]	IC80 (neutralization in TZM.bl cells) [5] [µg/mL]
B1	0.167	0.371	1.62	5.39	0.009	0.05	2.55	> 25	0.366	4.25	0.107	0.741
B2	0.114	0.399	1.5	3.84	0.021	0.109	2.68	> 25	0.22	4.24	0.059	0.592
B3	0.058	0.285	0.481	1.74	0.006	0.03	0.237	18.2	0.018	0.567	0.052	0.257
B4	0.068	0.507	0.425	1.49	0.011	0.043	0.393	> 25	0.073	1.72	0.044	0.242
B5	0.171	0.775	1.54	7.31	0.111	0.99	> 25	> 25	2.76	> 25	0.089	0.743
B6	0.11	0.529	1.54	4.09	0.024	0.208	7.38	> 25	0.6	9.78	0.051	0.446
B7	0.098	0.277	1.23	5.17	0.065	0.361	> 25	> 25	0.907	25	0.059	0.328
B8	0.057	0.388	0.848	2.84	0.02	0.075	2.62	> 25	0.213	2.04	0.07	0.632
B9	0.144	0.636	0.82	3.75	> 25	> 25	> 25	> 25	0.298	9.21	0.067	0.618
